These results are taken from publication PMC6421079.

The experiment has as its target Rubiscolin-6 (Spinacia oleracea). In words: [3H]DPDPE displacement radioligand binding.

B1: Delta opioid receptor, P41143 (protein)
chain: MEPAPSAGAELQPPLFANASDAYPSACPSAGANASGPPGARSASSLALAIAITALYSAVCAVGLLGNVLVMFGIVRYTKMKTATNIYIFNLALADALATSTLPFQSAKYLMETWPFGELLCKAVLSIDYYNMFTSIFTLTMMSVDRYIAVCHPVKALDFRTPAKAKLINICIWVLASGVGVPIMVMAVTRPRDGAVVCMLQFPSPSWYWDTVTKICVFLFAFVVPILIITVCYGLMLLRLRSVRLLSGSKEKDRSLRRITRMVLVVVGAFVVCWAPIHIFVIVWTLVDIDRRDPLVVAALHLCIALGYANSSLNPVLYAFLDENFKRCFRQLCRKPCGRPDPSSFSRAREATARERVTACTPSDGPGGGAAA
On to B1, for which the Ki was determined as 1 µM.
